Reference: paper PMC12954864

Target: GST-tag (glutathione S-transferase) freed from GST-ΔN-ATAD2B
Experiment: SEC; Superdex 200 Increase 10/300 GL (ÄKTAprime), ATAD2B sample from E. coli against a molecular-weight standard mixture; peak 1 ~9 ml near thyroglobulin (670 kDa), peak 2 ~15 ml before ovalbumin (44 kDa)

GST-tag (glutathione S-transferase) freed from GST-ΔN-ATAD2B
stoichiometry N: 2
